# Test system: K4 kissing-loop RNA reporter
# Test: apparent KD of K4 kissing-loop reporter; higher = weaker reporter binding
# Settings: Eterna round: R107; input ligand: arginine 13.2 mM
# Method: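 RNA-MaP round R107: designed RNA switches with theophylline, tryptophan, arginine or FMN aptamers are transcribed on-chip within common flanks. They are titrated with a labelled K4 kissing-loop RNA reporter in RNA-MaP buffer (100 mM Tris pH 7.5, 80 mM KCl, 4 mM MgCl2), without ligand or with the indicated ligand. Median apparent KD per design.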
# 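Further: bound reporter read as fluorescence of individual clusters on recovered sequencing chips by microscopy, with normalized cluster intensities fitted with a binding model.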
row,Sequence,apparent KD of K4 kissing-loop reporter [nM]
1,ACCUCACAGUGAUGUUGUGAGCCGAUAGUGAAGGAUAUUGUAAAGUCAAGAAGGUCAUGUCAGUCACAAAACGUUAAGCCUCGCA [theeternabot_exclusion_KL_FMN_A_19],218
2,UGAUACCAGGCGGCCGCCACUCCUACAGGUCAAAGACCUGUAAAGCUGGUUCUCCAGUGAUGUUGGAGGACCGGGCCUGGUAUCU [FiskerMod 29 - Jieux - Exclusion - Tryptophan B],156
3,UUAUAUAUAUUAGAUACCAGUUUAAUGGAAACAAAUUAUGUUAUGAGUGAUGUUCAUGUAAGCCCUUGGCAGCUGGUAUGGGUUU [KL-XTheo-B18],305
4,AGUGAUGUUCCUCCUCUUGGUCUUGGUGGGCGAGGACCGGUACGGCCGCCACUCGAUGUGGGAGUGAUGUUUCCAUAUGAUGUUU [Tryptophan A],580
5,AUUCGUUUAUGUGAUACCAGACUUUGCAGUGAUGUUGCAUUUAUUUUUGAAUUUUAGUUUGUCCCUUGGCAGCACUAUUUAUUUA [JR_SSTheophyB_Sub005],87.8
6,UAGCAUUUGCUCGAGUGAUGUUCGAGCGAAGGAGCGCGAGAAAUCGCAGGUAGGUCGCGCUCGAACUAUGAGCGAUCAUUUAUUG [Arg A Ex t2d],232
7,UGUGGAGAAUAUGAUACCAGCAGAGAGAGAGAGGAAGUAUAGUGAUGUUAUAUGAGAGAAUGCCCUUGGCAGCAUAAGAAGAAGG [SSTheophylB.C],119
8,GAAAGAAAGUAUGAUACCAGACACCCGAGUGAUGUUCGGAGCAGUGUGUUGUUCUUUUAAGUCCCUUGGCAGCAUAAAAGAAAAG [whbob_SS_Theo_B_sa85],107
9,GGUAGCAUGGCGGCCGCCACUAAAACUGGAUCGGAAACGAUCCAGUAAUUUCGAGUGAUGUUCGUUAGGACCGGGCCAUGCUACC,254
10,UGGAUAUAGUGAUGUUAUAUAGAGAUGGAUACCAGCGAAGAGAAUUGCCCUUGGCAGCCGAAAGAAGUAUCAUUAGAGAAGAAUG [ExTheophyl.Ah],213
11,AUUUUUUUAUCAGGAUAUUAGUGUUGGUUUGUUUUGUUAGUGAUGUUGAUAUUUGUUUUAUGUAUUUAAGAAGGGAUUGUGAUGU [huupullin],371
12,GAUACCACGUUAGAUACCAGCUUCGUUGACUUGGGUAGUAGUCGAACUUCAGUGAUGUUGAGCCCUUGGCAGCUACAGAUGUGCG [theeternabot_exclusion_KL_Theo_B_38],311
13,AGCGGCGCGCUGGAUACCAGUGUCCGACGCGUUAGUAUAGAUCCAAAGUGAUGUUUUGGUCACCCUUGGCAGCCACCUCUGUCGG [theeternabot_exclusion_KL_Theo_B_29],192
14,CUUAAGGAGUGUCGUGCCGGACACUGGGAAGGAGCGCAAUUCUUUGCAGGUAGGUCGCCCAGUGAUGUUGGGUCUCGCUGUCGAA [KL-XArg-A20],253
15,GACAUAUUCCAGGAUACCAGUGAUCCGCCGCAGCCGAAGACUAGUGAUGUUAGUUUCUGUCACCCUUGGCAGCCUCGAGUCUAAU [theeternabot_sameState_KL_Theo_B_15],487
16,UGACUGGACUGAAGGAGCGUUCAGGUAGGUCGCUAAGGAGUGAUGUUCCAUAGAAGGAGCGAACAGGUAGGUCGCAGUCUAGUCU [ArgBS 29 #DoubleAptamer #SwitchBubble],169

row,Sequence,apparent KD of K4 kissing-loop reporter [nM]
1,CGCCGAAAGGCGAGCGCUCCCACUCCGGAAGGAGCGCCCGAAAGGGCAGGUAGGUCGCCGGAGUGAUGUUCCGGUGGAGGGCUCG [#2 Exclusion - Arginine A Attempt #30 (Inspired by Omei)],167
2,AAACAUUGGUCUGAUACCAGCUGAUCGGAAACGAUCUUGCUGGAGUGAUGUUCCAGGAAAAGCCCUUGGCAGCAGACCGAUGAAA [MAT - Same State Theophlline B - Mod of Eli - D24],513
3,GGCUUACUAGUGAUGUUAGUAUUUUCUGAAGGAGCGCGUGAAAACGCAGGUAGGUCGCAGAACCUUGCCAACUAUUUUAGUUGCC [Ex Arginine A K4 28],157
4,AAAAUAAUCCAGUGAUGUUGGUAUACAGAUACCAGCGACGAAAGUCGCCCUUGGCAGCUGUGGACGUACAAAAUAAGUACGUCCU,972
5,GUAGACGUGCCUUCAGUGAUGUUGAAGGAUACCAGAUGUUACCACAUCCCUUGGCAGCCUUGGGAUAACAGUGAGUCGGUAUAUG [Ontierso],200
6,UCUGUGUCCGCGGCCGCCACUCGGGACUAAGUGAUGUUUAGUCCUUCAGAAUAAAGAAGUGAUGAGAGGACCGGGCGAUCGCACC [theeternabot_sameState_KL_Trp_B_2],81.9
7,GGGAGUGAUGUUCCCGCGUUGACGGUCCUCCGAGGACCGGUACGGCCGCCACUCGAAACCCAGUGAUGUUGGGACUCACCGUACU [Exclusion Tryptophan A GF 11],504
8,CUAGGUAACACAGGAUAUGUCCGAGUGAUGUUCGAGCCUUUCCAUUGACGAAAUUAAUGGUGGGUGACAGAAGGGUGAGUACUGA [Uses],640
9,CCAUCGCUAUUCGAUACCAGUCAUAAAAUCUUUGGUUAAAUAAAGGAGUGAUGUUCCCAAGACCCUUGGCAGCGAAUAGUGAUGG [Theophylline B K4 7],227
10,AACUGUCAAGGACAACAUUACUGCAGUGAUACCAGCAUCGAAAGAUGCCCUUGGCAGCACCAACUUGCAGUGAUGUUGCAAGUAA [BrourdMod 5 - Jieux - Exclusion - Theophylline A],203
11,GGAUAGGACAGAGGAUAUCCUUGAGGCAAGAAACUUGUCUCUAAAGGAUGAAUCCUAGUGAUGUUAGGAGAAGGCUGUCCUAUCG [FmnBX 14 - #SwitchBubble #StaticStem #Palindromic],82.2
12,UUUCCAGUGAUGUUGGAGAAAACCGAGGAAGGAGCGGACUCUUGUCCAGGUAGGUCGCCUCGUCUCCCAUUGGCAGAGCGGACCC [Enlaonbian],239
13,UAUAGAAACGUCCUAUCAGUAAAAUGGGAAGGAGCGAGGAAGGACUCAGGUAGGUCGCCCAAUAACCUUAGUGAUGUUAAGGAAA [Version 2],128
14,AGGAUCCGUCGACAAAAGUCGACAAUAACCAAGGAUAUGACGAAAGUCAGAAGGUGGUCUUAUGACCAGUGAUGUUGGUGGAUCC [FmnA 15 #SwitchBubble #K4Late],245
15,GCCUACGUAGCAGGAUAUAGGUAAGUGAGUGAUGUUCAAGAGUUCUGGAGUGAUGUUCCAAUCUGACUAGAAGGGCUACGUAGGC,45.2
16,GAGAGCCCUGUAGGAUAUGAGUCUAGUGAUGUUAGGCGGUCCAUGCGCGUGGCGCGUUAUGCCCUUUUAGAAGGACAGGGCUCUC [#2 Exclusion - FMN B Attempt #20 (HarryS)],67.2

# Same assay, conditions: Eterna round: R107; input ligand: none
row,Sequence,apparent KD of K4 kissing-loop reporter [nM]
1,AGGCACGAGCAAGGAUAUCGAGUAGAGUGAUGUUCUGCCUGGGUUGGCCCGUAAGGGCCUUCCCAGCGAGAAGGUGCUCGUGCCU [#2 Same State - FMN A Attempt #10 (HarryS)],647
2,AAUAAGGUCGCCGAUACCAGCGCGGGCAGAGCAAAGCUCUGCCCGGUAGUGAUGUUACCGCGCCCUUGGCAGCGGUGGCACGACC [Omei KL Theo B SS C v6],126
3,UGUACCGAGUCAGGAUAUGGCGUCGAAAGACGAAUCCUAGUGAUGUUAGCGAUCUGCGAAAGCAGUCCAGAAGGGACUUGGUACU [FmnBS 26 C50],438
4,CCGGCCCGGCCGGAUACCAGUGCGCCGCAGGGAACGGCGGGCCCAGAGUGAUGUUCGGGACACCCUUGGCAGCCGCCUGGGUCGC [#2 Same State - Theophylline B Attempt #27 (HarryS)],231
5,AUUAAUAUCACGGCCGCCACUGAAUAUUGUUUUUAUAUUUAGAAUAAUUGCCAGUGAUGUUGGAUCAGGACCGGGUGAGUUUAUA [JR_SSTryptoB_Sub007],461
6,AAUGAUGAUUGACACAUUUACUAAAAGGAAGGAGCGGCGAUGUGGCCAGGUAGGUCGCCUUUUAGCAGUGAUGUUGCUAUAUGUU [JR_Nu_ExcArginiA_Sub026],111
7,AGUGAUGUUGUGUGAUGUUAGUGAAGUGAUCGAGGACCGGUACGGCCGCCACUCGAGUGAUGAGUGAGUGAUGUUUGUUUAGUGG [#17 K4 Tryptophan A Same State],206
8,AUGAGGAGCAGUGAUCCUACUCCAUGGGAAGGAGCGUAGGAUACUACAGGUAGGUCGCCCAGUGAUGUUGGGCGCGUGCUCUUGG [Isatquesra],135
9,GAUAGUUAGAGAGAUACCAGCGAUACCUAGAUGGAAAGUGAUGUUCGCCAUCAAUUGCACCGCCCUUGGCAGCUCUCUCUUUGCU [theeternabot_exclusion_KL_Theo_B_37],1170
10,UGUACCGAGUCAGGAUAUGUCGUCGAAAGACGAAAUGGAGUGAUGUUCCUUAAACUGCGAAAGCAGACAGAAGGGACUUGGUACU [FmnBS 29 #SwitchBubble #StaticStem #DoubleMagnetSystem],385
11,ACCUCACAGUGAUGUUGUGAGCCGAUAGUGAAGGAUAUUGUAAAGUCAAGAAGGUCAUGUCAGUCACAAAACGUUAAGCCUCGCA [theeternabot_exclusion_KL_FMN_A_19],254
12,UGAUACCAGGCGGCCGCCACUCCUACAGGUCAAAGACCUGUAAAGCUGGUUCUCCAGUGAUGUUGGAGGACCGGGCCUGGUAUCU [FiskerMod 29 - Jieux - Exclusion - Tryptophan B],179
13,UUAUAUAUAUUAGAUACCAGUUUAAUGGAAACAAAUUAUGUUAUGAGUGAUGUUCAUGUAAGCCCUUGGCAGCUGGUAUGGGUUU [KL-XTheo-B18],237
14,AGUGAUGUUCCUCCUCUUGGUCUUGGUGGGCGAGGACCGGUACGGCCGCCACUCGAUGUGGGAGUGAUGUUUCCAUAUGAUGUUU [Tryptophan A],621
15,AUUCGUUUAUGUGAUACCAGACUUUGCAGUGAUGUUGCAUUUAUUUUUGAAUUUUAGUUUGUCCCUUGGCAGCACUAUUUAUUUA [JR_SSTheophyB_Sub005],50.5
16,UAGCAUUUGCUCGAGUGAUGUUCGAGCGAAGGAGCGCGAGAAAUCGCAGGUAGGUCGCGCUCGAACUAUGAGCGAUCAUUUAUUG [Arg A Ex t2d],312
17,UGUGGAGAAUAUGAUACCAGCAGAGAGAGAGAGGAAGUAUAGUGAUGUUAUAUGAGAGAAUGCCCUUGGCAGCAUAAGAAGAAGG [SSTheophylB.C],140
18,GAAAGAAAGUAUGAUACCAGACACCCGAGUGAUGUUCGGAGCAGUGUGUUGUUCUUUUAAGUCCCUUGGCAGCAUAAAAGAAAAG [whbob_SS_Theo_B_sa85],127
19,GGUAGCAUGGCGGCCGCCACUAAAACUGGAUCGGAAACGAUCCAGUAAUUUCGAGUGAUGUUCGUUAGGACCGGGCCAUGCUACC,283
20,UGGAUAUAGUGAUGUUAUAUAGAGAUGGAUACCAGCGAAGAGAAUUGCCCUUGGCAGCCGAAAGAAGUAUCAUUAGAGAAGAAUG [ExTheophyl.Ah],252
21,AUUUUUUUAUCAGGAUAUUAGUGUUGGUUUGUUUUGUUAGUGAUGUUGAUAUUUGUUUUAUGUAUUUAAGAAGGGAUUGUGAUGU [huupullin],409

# From the supplement of paper PMC9170038
